# ± gives the uncertainty stated by the source.
# B1: Far upstream element-binding protein 3, residues 75 to 150; numbered along this chain, Q96I24 (parent)
# chain: RTVITEEFKVPDKMVGFIIGRGGEQISRIQAESGCKIQIASESSGIPERPCVLTGTPESIEQAKRLLGQIVDRCRN
# Variants of: B1
# Experiment: abundance fitness (aPCA) (normalised: wild type 0, dead -1); higher = more abundant; growth selection in yeast, the domain comes from the species named
# Settings: Homo sapiens
row,Variant,abundance fitness
1,I37C,-0.239 ± 0.04
2,I37T,-0.505 ± 0.047
3,I37S,-0.658 ± 0.037
4,I37N,-0.69 ± 0.077
5,I37P,-0.609 ± 0.048
6,I37A,-0.515 ± 0.034
7,I37W,-0.955 ± 0.044
8,I37L,-0.158 ± 0.031
9,I37H,-0.816 ± 0.087
10,I37F,-0.447 ± 0.06
11,I37M,-0.232 ± 0.039
12,I37E,-0.595 ± 0.038
13,I37Q,-0.665 ± 0.048
14,P47M,-0.072 ± 0.038
15,P47F,-0.096 ± 0.044
16,P47L,-0.043 ± 0.03
17,P47W,-0.084 ± 0.032
18,P47I,-0.021 ± 0.051
19,P47Y,-0.12 ± 0.058
20,P47E,-0.037 ± 0.034
21,P47N,-0.077 ± 0.054
22,P47H,-0.028 ± 0.05
23,P47S,0.024 ± 0.034
24,P47G,-0.058 ± 0.025

row,Variant,abundance fitness
1,P47A,-0.03 ± 0.03
2,P47C,-0.027 ± 0.041
3,P47K,-0.023 ± 0.039
4,P47Q,-0.068 ± 0.039
5,P47R,-0.065 ± 0.025
6,P47V,-0.041 ± 0.03
7,P47T,-0.063 ± 0.036
8,Q38I,-0.098 ± 0.075
9,Q38C,-0.053 ± 0.048
10,Q38M,-0.101 ± 0.043
11,Q38S,-0.06 ± 0.035
12,Q38E,-0.013 ± 0.035
13,Q38K,-0.022 ± 0.05
14,Q38Y,-0.172 ± 0.077
15,Q38N,-0.086 ± 0.066
16,Q38F,-0.1 ± 0.098
17,Q38V,-0.007 ± 0.028
18,Q38D,-0.092 ± 0.047
19,Q38P,-0.829 ± 0.074
20,Q38W,-0.107 ± 0.032
21,Q38T,-0.047 ± 0.044
22,Q38A,-0.038 ± 0.031
23,Q38G,-0.105 ± 0.024
24,Q38H,-0.059 ± 0.062

row,Variant,abundance fitness
1,Q38R,-0.055 ± 0.027
2,S43F,-0.092 ± 0.1
3,S43C,0.017 ± 0.053
4,S43M,-0.079 ± 0.047
5,S43Q,-0.055 ± 0.045
6,S43E,-0.049 ± 0.039
7,S43I,0.028 ± 0.069
8,S43K,-0.11 ± 0.056
9,S43G,-0.041 ± 0.027
10,S43R,-0.079 ± 0.03
11,S43W,-0.155 ± 0.038
12,S43L,-0.102 ± 0.035
13,S43P,0.018 ± 0.051
14,S43N,-0.125 ± 0.098
15,S43V,-0.057 ± 0.032
16,S43D,-0.036 ± 0.056
17,S43A,-0.064 ± 0.039
18,I39G,-0.48 ± 0.027
19,I39E,-0.502 ± 0.037
20,I39P,-0.394 ± 0.044
21,I39W,-0.159 ± 0.031
22,I39T,-0.321 ± 0.039
23,I39M,-0.067 ± 0.035
24,I39F,-0.114 ± 0.052

row,Variant,abundance fitness
1,I39R,-0.526 ± 0.028
2,I39H,-0.44 ± 0.066
3,I39V,-0.027 ± 0.029
4,I39A,-0.437 ± 0.036
5,I39Q,-0.399 ± 0.041
6,I39L,-0.107 ± 0.031
7,I39K,-0.614 ± 0.046
8,I39S,-0.485 ± 0.037
9,I39C,-0.152 ± 0.044
10,I39Y,-0.327 ± 0.06
11,G34H,-0.155 ± 0.064
12,G34E,-0.089 ± 0.033
13,G34F,-0.292 ± 0.07
14,G34K,-0.027 ± 0.047
15,G34N,-0.046 ± 0.11
16,G34L,-0.264 ± 0.036
17,G34T,-0.268 ± 0.044
18,G34A,-0.124 ± 0.031
19,G34W,-0.665 ± 0.048
20,G34Q,-0.06 ± 0.049
21,G34I,-0.736 ± 0.2
22,G34D,-0.073 ± 0.047
23,G34S,-0.079 ± 0.043
24,G34Y,-0.361 ± 0.074

row,Variant,abundance fitness
1,G34C,-0.268 ± 0.054
2,G34R,-0.079 ± 0.03
3,G34P,-0.775 ± 0.067
4,E48L,-0.068 ± 0.031
5,E48D,0.001 ± 0.045
6,E48T,-0.109 ± 0.036
7,E48C,-0.158 ± 0.041
8,E48Y,-0.056 ± 0.057
9,E48N,-0.1 ± 0.06
10,E48I,-0.162 ± 0.054
11,E48R,-0.153 ± 0.029
12,E48V,-0.127 ± 0.029
13,E48W,-0.055 ± 0.032
14,E48S,-0.043 ± 0.033
15,E48F,-0.09 ± 0.046
16,E48P,-0.242 ± 0.042
17,E48M,-0.048 ± 0.038
18,E48Q,-0.108 ± 0.04
19,E48A,-0.137 ± 0.031
20,I46E,0.063 ± 0.033
21,I46W,-0.093 ± 0.033
22,I46Q,-0.007 ± 0.042
23,I46L,0.018 ± 0.031
24,I46H,0.02 ± 0.066

row,Variant,abundance fitness
1,I46G,0.011 ± 0.026
2,I46P,0.016 ± 0.046
3,I46S,-0.018 ± 0.035
4,I46F,-0.023 ± 0.053
5,I46K,-0.003 ± 0.043
6,I46M,-0.053 ± 0.04
7,I46D,-0.061 ± 0.046
8,I46A,0.03 ± 0.033
9,I46T,0.032 ± 0.043
10,I46R,-0.046 ± 0.027
11,I46V,-0.007 ± 0.029
12,I46C,0.023 ± 0.048
13,I46N,0.031 ± 0.056
14,E42S,-0.037 ± 0.037
15,E42H,0.01 ± 0.084
16,E42D,-0.023 ± 0.048
17,E42Y,-0.086 ± 0.057
18,E42Q,-0.035 ± 0.042
19,E42A,-0.039 ± 0.037
20,E42W,-0.069 ± 0.035
21,E42F,-0.093 ± 0.063
22,E42P,-0.037 ± 0.047
23,E42T,-0.04 ± 0.041
24,E42K,-0.047 ± 0.052

row,Variant,abundance fitness
1,E42R,0.005 ± 0.029
2,E42I,-0.139 ± 0.077
3,E42G,-0.013 ± 0.028
4,E42N,-0.043 ± 0.065
5,E42V,-0.041 ± 0.032
6,E42L,-0.086 ± 0.034
7,P50N,0.01 ± 0.052
8,P50G,-0.014 ± 0.026
9,P50A,-0.042 ± 0.031
10,P50S,-0.046 ± 0.031
11,P50K,-0.029 ± 0.036
12,P50I,0.004 ± 0.05
13,P50T,-0.053 ± 0.035
14,P50D,-0.079 ± 0.045
15,P50R,-0.06 ± 0.026
16,P50V,-0.031 ± 0.03
17,P50H,-0.04 ± 0.05
18,P50F,-0.119 ± 0.052
19,P50C,-0.054 ± 0.047
20,P50E,-0.01 ± 0.031
21,P50Y,-0.113 ± 0.048
22,P50L,-0.043 ± 0.03
23,P50M,-0.04 ± 0.038

# Source: the Human Domainome abundance scans (Beltran et al. 2025)
